We go through two molecules from US20130136743A1 (LABORATOIRE FRANCAIS DU FRACTIONNEMENT ET DES …, published 2013).

Assay [1] has as its target T1, AMHR-II human receptor (human, UniProt Q16671 18-573, limits assumed).
T1 sequence (looked up): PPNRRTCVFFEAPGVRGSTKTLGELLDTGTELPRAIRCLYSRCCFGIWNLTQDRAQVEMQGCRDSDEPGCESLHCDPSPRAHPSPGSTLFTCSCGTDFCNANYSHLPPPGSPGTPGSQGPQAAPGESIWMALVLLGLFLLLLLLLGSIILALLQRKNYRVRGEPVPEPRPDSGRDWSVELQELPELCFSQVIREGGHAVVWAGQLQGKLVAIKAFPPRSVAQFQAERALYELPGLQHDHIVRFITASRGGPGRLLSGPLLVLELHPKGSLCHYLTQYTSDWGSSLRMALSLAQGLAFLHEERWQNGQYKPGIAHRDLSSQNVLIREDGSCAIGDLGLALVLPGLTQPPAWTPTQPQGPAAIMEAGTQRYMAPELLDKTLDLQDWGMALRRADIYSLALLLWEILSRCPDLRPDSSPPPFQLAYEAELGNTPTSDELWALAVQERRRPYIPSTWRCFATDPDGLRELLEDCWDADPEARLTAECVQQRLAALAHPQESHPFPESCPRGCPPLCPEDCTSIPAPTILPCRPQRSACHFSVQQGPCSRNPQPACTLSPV
The assay is described as follows: method not stated; determined on the AMHR-II human receptor; determined on the AMHR-II human receptor (table footnote), apart from the tabulated 2.35 × 10^-7M.

In assay [2] the target is T2, Epitope peptide GGGGNLTQDRAQVEMQGSR
T2 peptide: GGGGNLTQDRAQVEMQGSR
The assay is described as follows: method not stated; Example 2, heading names cov434-AMHR-II cells and the epitope peptide.

The target in assay [3] is T3, AMHR-II/Fc fusion protein (human, UniProt Q16671 18-149, limits assumed).
T3 construct: also called AMHR-II recombinant receptor expressed in the form of fusion protein with a region Fc; recombinant target; not shown: Fc region
The assay is described as follows: SPR, BIAcore X100; AMHR-II/Fc immobilised on CM5 chip, antibody injected; 25 C. Here is the method: The affinity of the antibodies for their antigen, AMHR-II, is determined by the SPR (Surface Plasmon Resonance) technique on BIACore X100 (BIACore, GE Healthcare). The AMHR-II recombinant receptor, expressed in the form of fusion protein with a region Fc, is immobilized by covalent coupling between its amine functions and the carboxyl groups of dextran activated in succinimide esters, present on the surface of the type CM5 sensor chip. The COOH groups of the sensor chip are activated for 7 minutes with EDC/NHS mixture (0.1 M of N-hydroxysuccinimide and 0.1 M of 3-(N,N-dimethylamino)propyl-N-ethylcarbodiimide) at a flow of 10 μl/min then the AMHR-II/Fc fusion protein, diluted to 5 μg/ml in 10 mM sodium acetate buffer, pH 4.0, is injected at […] on track 2 of the sensor chip so as to reach 300 RU. The ester groups that have not reacted with the amines of the fusion protein are deactivated by injection of a solution of ethanolamine-HCl 1M, pH 8.5 for 7 min at a flow of 10 μl:min. Track 1, serving as negative control, was activated and deactivated like track 2.
All the measurements are carried out at 25° C. The antibodies to be analysed are diluted in HBS-EP running buffer (BIACore, GE Healthcare) at concentrations from 6.25 to 3333 nM and injected on the sensor chip for 2 min at a flow of 30 μl/min. The dissociation step is monitored for 10 min and then the surface is regenerated by injection of 10 mM glycine buffer, pH 1.5 for 30 s at 10 μl/min.
The sensorgrams obtained are analysed using the 1:2 kinetic model of the BIAevaluation 3.1 software.
(In SPR one partner is held on a chip, and binding of the other changes the refractive index at the surface.)

The target of assay [4] is T3, AMHR-II/Fc fusion protein. As to the kind of experiment: direct phage ELISA, ratio of specific binding; 3.00E+09 phages per well as printed (second row).
The target of assay [5] is T3, AMHR-II/Fc fusion protein. The assay is described as follows: direct phage ELISA, target coated at 500 ng/well; 3.00E+10 phages per well as printed (second row).
Assay [6] addresses T3, AMHR-II/Fc fusion protein. As to the kind of experiment: direct phage ELISA, ratio of specific binding; 3.00E+09 phages per well as printed (third row). A general note: An ELISA detects its analyte on a solid surface through an enzyme-linked reagent.
The target in assay [7] is T3, AMHR-II/Fc fusion protein. As to the kind of experiment: direct phage ELISA, ratio of specific binding; 3.00E+10 phages per well as printed (second row).
The target of assay [8] is T3, AMHR-II/Fc fusion protein. The assay is described as follows: direct phage ELISA, ratio of specific binding; 3.00E+09 phages per well as printed.
For assay [9], the target named is T3, AMHR-II/Fc fusion protein. As to the kind of experiment: direct phage ELISA, target coated at 500 ng/well; 3.00E+09 phages per well as printed (third row).
Assay [10] addresses T3, AMHR-II/Fc fusion protein. As to the kind of experiment: direct phage ELISA, target coated at 500 ng/well; 3.00E+09 phages per well as printed.
Assay [11] concerns the target T3, AMHR-II/Fc fusion protein. The assay is described as follows: direct phage ELISA, target coated at 500 ng/well; 3.00E+10 phages per well as printed.
Assay [12] has as its target T3, AMHR-II/Fc fusion protein. As to the kind of experiment: direct phage ELISA, target coated at 500 ng/well; 3.00E+09 phages per well as printed (second row).
The target in assay [13] is T3, AMHR-II/Fc fusion protein. The assay is described as follows: direct phage ELISA, ratio of specific binding; 3.00E+10 phages per well as printed.

By Kd is commonly meant the free concentration of one partner at which half of the binding sites on the other are occupied at equilibrium, for simple one-to-one binding. By koff is commonly meant the rate constant with which the complex falls apart. A lower koff goes with a long-lived complex. The kon is the rate constant with which the complex forms. Low values mean slower complex formation, high ones faster complex formation.

B1: chimeric 12G4 monoclonal antibody (antibody, V domains shown)
VH: QVQLQQSGPELVKPGASVRMSCKASGYTFTSYHIHWVKQRPGQGLEWIGWIYPGDDSTKYNEKFKGKTTLTADKSSSTAYMLLSSLTSEDSAIYFCTRGDRFAYWGQGTLVTVSA
VL: QIVLTQSPAIMSASLGEGITLTCSASSSVRYIHWYQQKSGTSPKLLIYSTSNLASGVPSRFSGSGSGTFHSLTISSVEAEDAADYYCLQWSSYPWTFGGGTKLEIKR
notes: Variable regions without leader joined to the human constant regions; also called 12G4-Chimeric; unmutated chimeric 12G4 antibody
For B1, the Kd in assay [1] is approximately 10 nM; in assay [2], 235 nM; in assay [3], 212 nM. Moreover, the koff came out at 0.00153 s⁻¹ in [2] and 0.00074 s⁻¹ in assay [3]. Besides, the on-rate constant (kon) stood at 6490 M⁻¹ s⁻¹ in assay [2] and 3500 M⁻¹ s⁻¹ in assay [3].

B2: mVH-VL, murine antibody mLFB112 expressed as scFv on phage (scFv, part only; not given: scFv linker, part only)
scFv, part: QVQLQQSGPELVKPGASVRMSCKASGYTFTSYHIHWVKQRPGQGLEWIGWIYPGDDSTKYNEKFKGKTTLTADKSSSTAYMLLSSLTSEDSAIYFCTRGDRFAYWGQGTLVTVSAQIVLTQSPAIMSASLGEGITLTCSASSSVRYIHWYQQKSGTSPKLLIYSTSNLASGVPSRFSGSGSGTFHSLTISSVEAEDAADYYCLQWSSYPWTFGGGTKLEIK
With B2, the Ratio mVH-VL/huVH-VL in [4] was determined as 5.2; in [6], 5.2; in [7], 3.6; in assay [8], 4.7; in assay [13], 2.4. Besides, the OD 450 nm, +covering is 2.19 OD in assay [5]; 0.495 OD in assay [9]; 1.57 OD in assay [10]; 2.81 OD in [11]; 0.946 OD in assay [12]. The OD 450 nm, Diff (specific binding) was found to be 2.11 OD in [5]; 0.446 OD in assay [9]; 1.51 OD in [10]; 2.65 OD in assay [11]; 0.887 OD in assay [12].
